According to FireProtDB:
Where “and” joins values, the source holds several entries; their conditions need not be identical. Equal entries are not always repeated.

Details: whole UniProt chain shown
[1] = Salmonella phage P22, pH 7.3, Thermal, CD, Potassium phosphate 10 mM, KCl 100 mM, reversible: yes
[2] = Salmonella phage P22, pH 7.5, 20 °C, GdnHCl, CD, Tris-HCl 50 mM, KCl 100 mM, reversible: yes
[3] = Salmonella phage P22, pH 7.5, 20 °C, GdnHCl, Fluorescence, Tris-HCl 50 mM, KCl 100 M, reversible: yes
[4] = Salmonella phage P22, pH 7.5, 20 °C, Urea, Fluorescence, Tris-HCl 50 mM, KCl 100 mM, reversible: yes
[5] = Salmonella phage P22, pH 7.5, 25 °C, GdnHCl, CD, Tris-HCl 50 mM, KCl 250 mM
[6] = Salmonella phage P22, pH 7.5, 25 °C, GdnHCl, Fluorescence, Tris-HCl 50 mM, KCl 100 M, reversible: yes
[7] = Salmonella phage P22, pH 7.5, 25 °C, Urea, CD, Tris 50 mM, KCl 50 mM
[8] = Salmonella phage P22, pH 7.5, 25 °C, Urea, CD, Tris-Cl 10 mM, KCl 250 mM
[9] = Salmonella phage P22, pH 7.5, 25 °C, Urea, CD, Tris-HCl 50 mM, KCl 250 mM, reversible: yes
[10] = Salmonella phage P22, pH 7.5, Thermal, CD, Tris-HCl 50 mM, KCl 250 mM, reversible: yes
[11] = Salmonella phage P22, pH 7.5, Thermal, CD, Tris-HCl 50 mM, KCl 100 M, reversible: yes
[12] = Rattus norvegicus, pH 7, 25 °C, Urea, CD, Sodium phosphate 25 mM, NaCl 75 mM, reversible: yes
[13] = Rattus norvegicus, pH 7, 25 °C, Urea, Fluorescence, Sodium phosphate 25 mM, NaCl 75 mM, reversible: yes
[14] = Rattus norvegicus, pH 7, 27 °C, Urea, CD, Phosphate 10 mM
[15] = Rattus norvegicus, pH 7, 27 °C, Urea, Magnetic Relaxation Dispersion, Phosphate 10 mM
[16] = Rattus norvegicus, pH 7.2, 20 °C, GdnHCl, Fluorescence, Potassium phosphate 20 mM, reversible: yes
[17] = Rattus norvegicus, pH 7.4, 20 °C, GdnHCl, CD, Potassium phosphate 20 mM, reversible: yes
[18] = Rattus norvegicus, pH 7.4, 20 °C, GdnHCl, Fluorescence, Potassium phosphate 20 mM, reversible: yes
[19] = Rattus norvegicus, pH 9.6, 20 °C, GdnHCl, Fluorescence, Sodium pyrophosphate 20 mM, reversible: yes

B1: Transcriptional repressor arc wild type, P03050 (protein)
chain: MKGMSKMPQFNLRWPREVLDLVRKVAEENGRSVNSEIYQRVMESFKKEGRIGA
In the case of B1, the Tm [1] is reported as 54 °C, the “heat capacity change of unfolding” value [1] is reported as 1.6 kcal/mol/K and the “unfolding enthalpy (van 't Hoff)” value [1] is reported as 71 kcal/mol. It also gave an unfolding free energy [1] of 7.3 kcal/mol, a denaturant m value [2] of 3.27 kcal/mol/M and an unfolding free energy [2] of 11.1 kcal/mol. It also gave a denaturant m value [3] of 2.98 kcal/mol/M, an unfolding free energy [3] of 9.97 kcal/mol and a denaturant m value [4] of 1.37 kcal/mol/M. The “denaturant midpoint (higher = more stable)” value (“denaturant midpoint” for short) [4] was 6.7 M, the unfolding free energy [4] was 9.58 kcal/mol and the denaturant m value [5] was 3 kcal/mol/M. For the same protein, the “denaturant midpoint” value [5] was 1.1 M, the unfolding free energy [5] was 10.3 kcal/mol and the denaturant m value [6] was 3.03 kcal/mol/M. The unfolding free energy [6] was 10.1 kcal/mol, the Tm (Salmonella phage P22, pH 7.5, 25 °C, Thermal, CD, Tris-HCl 50 mM, KCl 50 mM) was 56.8 °C and the unfolding free energy (Salmonella phage P22, pH 7.5, 25 °C, Thermal, CD, Tris-HCl 50 mM, KCl 250 mM) was 11 kcal/mol. It also gave a denaturant m value [7] of 1.5 kcal/mol/M, an unfolding free energy [7] of 10.4 kcal/mol and a denaturant m value [8] of 1.21 kcal/mol/M. The unfolding free energy [8] was 9.92 kcal/mol, the denaturant m value [9] was 1.36 kcal/mol/M and 1.57 kcal/mol/M and 1.64 kcal/mol/M and the “denaturant midpoint” value [9] was 4.65 M. For the same protein, the unfolding free energy [9] was 6.3 kcal/mol and 10.9 kcal/mol and 11 kcal/mol, the Tm (Salmonella phage P22, pH 7.5, Thermal, CD, Potassium phosphate 10 mM, KCl 100 mM) was 54 °C and the Tm (Salmonella phage P22, pH 7.5, Thermal, CD, Tris-HCl 50 mM, KCl 50 mM) was 56.8 °C. The Tm [10] was 58.3 °C and 59 °C and 57.9 °C, the “unfolding enthalpy (van 't Hoff)” value [10] was 62.3 kcal/mol and 58.5 kcal/mol and the Tm [11] was 53.4 °C. For the same protein, the “unfolding enthalpy (van 't Hoff)” value [11] was 55.2 kcal/mol.

B2: Cytochrome c2 wild type, P00094 (protein)
chain: MKISLTAATVAALVLAAPAFAGDAAKGEKEFNKCKTCHSIIAPDGTEIVKGAKTGPNLYGVVGRTAGTYPEFKYKDSIVALGASGFAWTEEDIATYVKDPGAFLKEKLDDKKAKTGMAFKLAKGGEDVAAYLASVVK
In the case of B2, the “denaturant midpoint” value (Rhodobacter capsulatus (strain ATCC BAA-309 / NBRC 16581 / SB1003), pH 7.5, 30 °C, GdnHCl, CD, Tris 20 mM) is reported as 1.54 M.

B3: Parvalbumin alpha wild type, P02625 (protein)
chain: MSMTDLLSAEDIKKAIGAFTAADSFDHKKFFQMVGLKKKSADDVKKVFHILDKDKSGFIEEDELGSILKGFSSDARDLSAKETKTLMAAGDKDGDGKIGVEEFSTLVAES
For B3, the unfolding free energy (Rattus norvegicus, pH 7.74, 30 °C, Thermal, CD, piperazine 10 mM, KCl 200 mM) was 0.7 kcal/mol and the Tm (Rattus norvegicus, pH 7.74, Thermal, CD, piperazine 10 mM, KCl 200 mM) was 35 °C.

B4: Fatty acid-binding protein, brain wild type, P55051 (protein)
chain: MVDAFCATWKLTDSQNFDEYMKALGVGFATRQVGNVTKPTVIISQEGGKVVIRTQCTFKNTEISFQLGEEFEETSIDDRNCKSVIRLDGDKLIHVQKWDGKETNCVREIKDGKMVVTLTFGDVVAVRCYEKA
In the case of B4, the denaturant m value [12] is reported as 1.04 kcal/mol/M, the “denaturant midpoint” value [12] is reported as 4.1 M and the unfolding free energy [12] is reported as 4.28 kcal/mol. The denaturant m value [13] was 1.13 kcal/mol/M, the “denaturant midpoint” value [13] was 4.24 M and the unfolding free energy [13] was 4.79 kcal/mol. The denaturant m value [14] was 1 kcal/mol/M, the “denaturant midpoint” value [14] was 5.1 M and the denaturant m value [15] was 0.88 kcal/mol/M. For the same protein, the “denaturant midpoint” value [15] was 6.5 M, the “denaturant midpoint” value [16] was 1.36 M and the unfolding free energy [16] was 5.22 kcal/mol. For the same protein, the denaturant m value [17] was 5.33 kcal/mol/M, the “denaturant midpoint” value [17] was 1.32 M and the unfolding free energy [17] was 7.06 kcal/mol. For the same protein, the denaturant m value [18] was 3.82 kcal/mol/M, the “denaturant midpoint” value [18] was 1.36 M and the unfolding free energy [18] was 5.22 kcal/mol. The unfolding free energy (Rattus norvegicus, pH 8, 25 °C, Urea, CD, NaH2PO4 25 mM/, NaCl 75 mM, reversible: Yes) was 5.86 kcal/mol, the unfolding free energy (Rattus norvegicus, pH 8, 25 °C, Urea, Fluorescence, NaH2PO4 25 mM/, NaCl 75 mM, reversible: Yes) was 5.28 kcal/mol and the “denaturant midpoint” value [19] was 1.41 M. The unfolding free energy [19] was 5.59 kcal/mol.
